# Measurements: IntAct's records for PubMed 12446441
# B1: Ras-related protein Rab-27A (Homo sapiens), P51159-1 (parent)
# chain: MSDGDYDYLIKFLALGDSGVGKTSVLYQYTDGKFNSKFITTVGIDFREKRVVYRASGPDGATGRGQRIHLQLWDTAGQERFRSLTTAFFRDAMGFLLLFDLTNEQSFLNVRNWISQLQMHAYCENPDIVLCGNKSDLEDQRVVKEEEAIALAEKYGIPYFETSAANGTNISQAIEMLLDLIMKRMERCVDKSWIPEGVVRSNGHASTDQLSEEKEKGACGC
# partner: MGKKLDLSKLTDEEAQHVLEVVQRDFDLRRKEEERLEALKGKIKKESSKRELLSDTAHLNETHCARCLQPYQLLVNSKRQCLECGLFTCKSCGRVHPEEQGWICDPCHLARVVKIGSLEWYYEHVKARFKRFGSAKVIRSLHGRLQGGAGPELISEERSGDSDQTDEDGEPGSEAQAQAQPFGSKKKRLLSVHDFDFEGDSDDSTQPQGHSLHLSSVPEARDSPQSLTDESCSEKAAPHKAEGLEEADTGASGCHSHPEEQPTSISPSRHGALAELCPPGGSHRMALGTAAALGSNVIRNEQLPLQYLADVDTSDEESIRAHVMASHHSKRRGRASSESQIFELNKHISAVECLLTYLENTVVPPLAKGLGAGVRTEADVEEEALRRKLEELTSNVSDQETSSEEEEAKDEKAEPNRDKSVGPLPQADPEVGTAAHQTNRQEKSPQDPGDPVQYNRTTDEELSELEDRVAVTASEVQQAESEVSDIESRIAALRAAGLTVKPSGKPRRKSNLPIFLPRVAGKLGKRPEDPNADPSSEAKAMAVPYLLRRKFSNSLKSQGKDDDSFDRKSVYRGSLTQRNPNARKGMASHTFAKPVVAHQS
# Variants of: B1
# Details: with melph_human MLPH
row,effect of a mutation on the interaction,Variant
1,disrupting interaction strength,T23N

# Variants of: B1
# Details: with melph_human MLPH
# Remark: another data set of the same source
row,effect of a mutation on the interaction,Variant
1,disrupting interaction strength,W73G
2,disrupting interaction strength,W73S
3,disrupting interaction strength,W73L
